Columns and labels:
murine B7-DC (murine) [1] = target: murine B7-DC (murine) (UniProt Q9WUL5); experiment: flow cytometry competition on murine bone marrow derived DC; DC preincubated with PD-1.Ig, then stained with sHIgM12
murine B7-DC (murine) [2] = target: murine B7-DC (murine) (UniProt Q9WUL5); experiment: flow cytometry on 293T cells transfected with murine B7-DC
murine B7-DC (murine) [3] = target: murine B7-DC (murine) (UniProt Q9WUL5); experiment: flow cytometry competition on murine bone marrow derived DC; DC preincubated with sHIgM12, then stained with PD-1.Ig
murine B7-DC (murine) [4] = target: murine B7-DC (murine) (UniProt Q9WUL5); experiment: cell-based or functional assay

murine B7-DC (murine), sequence (Q9WUL5 20-247): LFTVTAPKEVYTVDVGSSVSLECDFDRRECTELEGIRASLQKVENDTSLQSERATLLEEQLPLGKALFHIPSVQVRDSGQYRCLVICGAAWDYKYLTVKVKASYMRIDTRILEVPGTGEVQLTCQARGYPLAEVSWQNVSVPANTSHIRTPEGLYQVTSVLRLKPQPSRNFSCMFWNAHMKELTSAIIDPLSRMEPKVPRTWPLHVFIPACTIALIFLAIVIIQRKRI

Substance | sHIgM12 staining remaining (% of the level without PD-1) (murine B7-DC (murine) [1]) | percent of transfected cells stained (murine B7-DC (murine) [2]) | PD-1 binding remaining (% of the level without sHIgM12) (murine B7-DC (murine) [3]) | FITC-MFI (uptake of FITC-BSA by bone marrow derived DC in vitro) (murine B7-DC (murine) [4]) | FITC-MFI (uptake of FITC-OVA by splenic DC after treatment in vivo) (murine B7-DC (murine) [4]) | GFP+, CD11c+ DC recovered from draining lymph nodes, against polyclonal HIgM control (murine B7-DC (murine) [4]) | IL-12 p70 release by DC (ELISA), against LPS (murine B7-DC (murine) [4]) | ability of lymph node DC to induce an antigen-specific T cell response (murine B7-DC (murine) [4]) | percentage of cellular metabolism (Alamar Blue) maintained 24 hours after cytokine withdrawal (murine B7-DC (murine) [4])
PD-1.Ig fusion protein (Fc fusion) | 50% |  |  |  |  |  |  |  | 
sHIgM12 (pentameric human monoclonal IgM/kappa antibody, B7-DC cross-linking antibody) |  | 97% | 20% | 584 MFI | 116 MFI | 5 fold | 3 fold | 10 fold | 80%

Reference: EP2481750A1
